Target: exosome core (S. cerevisiae, UniProt P46948 1-246; Q05636 1-305; Q12277 1-265; P25359 1-394; P48240 1-250; P53256 …)
Experiment: tandem affinity purification + ion-exchange chromatography

stoichiometry N: 1 molar ratio
B1: Rrp44 (enzyme, S. cerevisiae, UniProt Q08162 1-1001, looked up)
chain: MSVPAIAPRRKRLADGLSVTQKVFVRSRNGGATKIVREHYLRSDIPCLSRSCTKCPQIVVPDAQNELPKFILSDSPLELSAPIGKHYVVLDTNVVLQAIDLLENPNCFFDVIVPQIVLDEVRNKSYPVYTRLRTLCRDSDDHKRFIVFHNEFSEHTFVERLPNETINDRNDRAIRKTCQWYSEHLKPYDINVVLVTNDRLNREAATKEVESNIITKSLVQYIELLPNADDIRDSIPQMDSFDKDLERDTFSDFTFPEYYSTARVMGGLKNGVLYQGNIQISEYNFLEGSVSLPRFSKPVLIVGQKNLNRAFNGDQVIVELLPQSEWKAPSSIVLDSEHFDVNDNPDIEAGDDDDNNESSSNTTVISDKQRRLLAKDAMIAQRSKKIQPTAKVVYIQRRSWRQYVGQLAPSSVDPQSSSTQNVFVILMDKCLPKVRIRTRRAAELLDKRIVISIDSWPTTHKYPLGHFVRDLGTIESAQAETEALLLEHDVEYRPFSKKVLECLPAEGHDWKAPTKLDDPEAVSKDPLLTKRKDLRDKLICSIDPPGCVDIDDALHAKKLPNGNWEVGVHIADVTHFVKPGTALDAEGAARGTSVYLVDKRIDMLPMLLGTDLCSLKPYVDRFAFSVIWELDDSANIVNVNFMKSVIRSREAFSYEQAQLRIDDKTQNDELTMGMRALLKLSVKLKQKRLEAGALNLASPEVKVHMDSETSDPNEVEIKKLLATNSLVEEFMLLANISVARKIYDAFPQTAMLRRHAAPPSTNFEILNEMLNTRKNMSISLESSKALADSLDRCVDPEDPYFNTLVRIMSTRCMMAAQYFYSGAYSYPDFRHYGLAVDIYTHFTSPIRRYCDVVAHRQLAGAIGYEPLSLTHRDKNKMDMICRNINRKHRNAQFAGRASIEYYVGQVMRNNESTETGYVIKVFNNGIVVLVPKFGVEGLIRLDNLTEDPNSAAFDEVEYKLTFVPTNSDKPRDVYVFDKVEVQVRSVMDPITSKRKAELLLK

— paper PMC3976988 (Nature structural & molecular biology, 2013)
